Measured values published in article PMC9897471.
Where two headings read alike, the source gives them in different places.

B1: non-rRNA bottom ssRNA (ssRNA)
RNA: AUCCCAGCACCAGAUUCAGCAAUUAAGCUCUAAGCCAUGAAUUCAAAUGACCUCUUAUCA
B2: non-rRNA dsRNA (bottom/top) (dsRNA)
RNA 1: B1 RNA
RNA 2: UGAUAAGAGGUCAUUUGAAUUCAUGGCUUAGAGCUUAAUUGCUGAAUCUGGUGCUGGGAU
B3: non-rDNA bottom ssDNA (ssDNA)
DNA: ATCCCAGCACCAGATTCAGCAATTAAGCTCTAAGCCATGAATTCAAATGACCTCTTATCA

Key:
GST-BRCA1 BRCT WT [1] = target: T1, GST-BRCA1 BRCT WT (UniProt P38398 1582-1863); test: EMSA
T1 sequence (P38398 1582-1863): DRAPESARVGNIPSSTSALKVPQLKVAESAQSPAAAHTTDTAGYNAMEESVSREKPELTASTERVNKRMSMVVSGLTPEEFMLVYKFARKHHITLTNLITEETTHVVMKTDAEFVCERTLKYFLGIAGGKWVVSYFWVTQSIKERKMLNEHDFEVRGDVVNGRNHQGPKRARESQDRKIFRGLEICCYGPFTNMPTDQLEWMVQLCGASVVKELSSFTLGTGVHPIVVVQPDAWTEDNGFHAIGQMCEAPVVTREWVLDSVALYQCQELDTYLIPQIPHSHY

GST-BRCA1 BRCT WT [2] = target: T1, GST-BRCA1 BRCT WT; test: EMSA; remark: listed apart in the source

Row | Binder | binding result (GST-BRCA1 BRCT WT [1]) | binding result (GST-BRCA1 BRCT WT [2])
1 | B1 | binds | 
2 | B2 | no binding | 
3 | B3 |  | binds
